Measurements: PMC8930418

Target: dSpCas9 (catalytically inert dCas9) (UniProt Q99ZW2)
Assay: MST

Chain of UniProt Q99ZW2 (Q99ZW2 whole entry): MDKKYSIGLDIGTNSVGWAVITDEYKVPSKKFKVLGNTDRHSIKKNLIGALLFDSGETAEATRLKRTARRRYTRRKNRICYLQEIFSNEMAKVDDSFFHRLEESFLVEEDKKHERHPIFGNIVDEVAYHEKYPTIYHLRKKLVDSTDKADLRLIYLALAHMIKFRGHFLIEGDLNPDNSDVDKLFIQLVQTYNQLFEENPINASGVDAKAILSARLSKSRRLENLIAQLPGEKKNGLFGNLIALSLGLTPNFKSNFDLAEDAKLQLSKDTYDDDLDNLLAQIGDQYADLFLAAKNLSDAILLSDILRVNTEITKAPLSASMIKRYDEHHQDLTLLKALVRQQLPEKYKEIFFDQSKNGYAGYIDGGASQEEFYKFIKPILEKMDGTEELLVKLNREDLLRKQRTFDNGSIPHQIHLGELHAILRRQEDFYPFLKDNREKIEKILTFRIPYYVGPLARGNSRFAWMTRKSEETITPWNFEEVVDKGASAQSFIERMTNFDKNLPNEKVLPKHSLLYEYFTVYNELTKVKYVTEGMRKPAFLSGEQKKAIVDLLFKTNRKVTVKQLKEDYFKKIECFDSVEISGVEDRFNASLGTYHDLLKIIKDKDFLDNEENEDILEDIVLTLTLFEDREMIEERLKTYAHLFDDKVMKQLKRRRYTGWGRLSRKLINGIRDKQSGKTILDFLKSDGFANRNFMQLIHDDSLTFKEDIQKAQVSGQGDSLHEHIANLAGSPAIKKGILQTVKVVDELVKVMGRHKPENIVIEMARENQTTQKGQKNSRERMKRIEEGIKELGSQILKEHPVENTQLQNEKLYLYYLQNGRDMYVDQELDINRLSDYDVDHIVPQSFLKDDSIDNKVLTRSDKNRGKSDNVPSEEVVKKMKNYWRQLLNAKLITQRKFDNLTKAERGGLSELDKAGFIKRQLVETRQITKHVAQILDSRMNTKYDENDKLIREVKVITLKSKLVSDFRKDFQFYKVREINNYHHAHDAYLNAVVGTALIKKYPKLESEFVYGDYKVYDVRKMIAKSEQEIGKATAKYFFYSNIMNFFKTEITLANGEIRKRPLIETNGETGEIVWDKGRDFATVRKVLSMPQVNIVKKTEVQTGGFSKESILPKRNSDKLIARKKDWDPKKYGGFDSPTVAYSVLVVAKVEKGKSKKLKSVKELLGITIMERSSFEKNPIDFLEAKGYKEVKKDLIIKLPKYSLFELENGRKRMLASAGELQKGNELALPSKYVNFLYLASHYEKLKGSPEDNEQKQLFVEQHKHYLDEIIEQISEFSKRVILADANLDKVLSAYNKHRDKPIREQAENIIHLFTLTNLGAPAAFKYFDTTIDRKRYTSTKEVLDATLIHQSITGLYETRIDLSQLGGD

Row | Sequence | Kd [nM]
1 | GGCCCAGACTGAGCACGTGAGTTTTAGAGCTAGAAATAGCAAGTTAAAATAAGGCTAGTCCGTTATCAACTTGAAAAAGTGGCACCGAGTCGGTGCTGGAGGAAGCAGGGCTTCCTTTCCTCTGCCATCACTTATCGTCGTCATCCTTGTAATCCGTGCTCAGTCTGTTTTTT [unmodified pegRNA (guide) + HEK3 dsDNA target] | 8.1
2 | GGCCCAGACTGAGCACGTGAGTTTTAGAGCTAGAAATAGCAAGTTAAAATAAGGCTAGTCCGTTATCAACTTGAAAAAGTGGCACCGAGTCGGTGCTGGAGGAAGCAGGGCTTCCTTTCCTCTGCCATCACTTATCGTCGTCATCCTTGTAATCCGTGCTCAGTCTGTCTCTCTCTTGACGCGGTTCTATCTAGTTACGCGTTAAACCAACTAGAAATTTTTT [evopreQ1 epegRNA (guide) + HEK3 dsDNA target] | 10
